Source: paper PMC7911190, “One Step Histological Detection and Staining of the PTEN Tumor Suppressor Protein by a Single Strand DNA”

B1: Dual aptazyme PTENz7-70 (structured_DNA)
DNA: GTGGGTAGGGCGGGTTGGCGGTCATACCGCGCCTATCGAACTCGCCACTCGCGTGCAGCTCTGTGTAGGT
B2: PTENz7-87-biotin (structured_DNA)
DNA: CGGAATTCCGAGCGTGGGCGTGGTCATACCGCGCCTATCGAACTCGCCACTCGCGTGCAGCTCTGTGTAGGTACGCCCACGCTCGAG

What was measured:
[1] = molecular target: T1, PTEN (endogenous, human tissue sections) (human, UniProt P60484 1-403); test: histochemistry (PS2.M peroxidase, DAB); hemin, K+; endometrium and colon; same scoring as MAb 6H2 in 60 samples; Fixed tissue sections; 5 uM aptamer in TKT (25 mM Tris-HCl pH 8, 20 mM KCl, 200 mM NaCl, 0.05% Triton X-100, 0.1% DMSO), 100 uM hemin for DNAzyme constructs, BSA; 3 h at room temperature or overnight at 4 C (25 C overnight also stated); settings: protein: native; 5' PS2.M G-quadruplex; stem linker removed
T1 sequence (P60484 whole entry): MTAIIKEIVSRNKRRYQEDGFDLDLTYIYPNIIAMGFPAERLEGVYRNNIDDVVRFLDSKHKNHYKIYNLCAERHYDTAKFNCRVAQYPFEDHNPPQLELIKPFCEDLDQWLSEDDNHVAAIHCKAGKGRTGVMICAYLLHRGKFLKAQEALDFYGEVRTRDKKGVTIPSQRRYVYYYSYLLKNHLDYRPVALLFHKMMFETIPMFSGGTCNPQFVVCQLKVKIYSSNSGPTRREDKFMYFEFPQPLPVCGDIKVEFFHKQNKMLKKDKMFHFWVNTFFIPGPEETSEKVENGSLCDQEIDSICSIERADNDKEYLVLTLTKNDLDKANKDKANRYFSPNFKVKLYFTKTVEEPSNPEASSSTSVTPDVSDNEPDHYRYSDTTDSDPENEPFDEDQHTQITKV

[2] = molecular target: T1, PTEN (endogenous, human tissue sections); test: histochemistry (avidin-biotin peroxidase); normal endometrium; TKT buffer; Fixed tissue sections; 5 uM aptamer in TKT (25 mM Tris-HCl pH 8, 20 mM KCl, 200 mM NaCl, 0.05% Triton X-100, 0.1% DMSO), 100 uM hemin for DNAzyme constructs, BSA; 3 h at room temperature or overnight at 4 C (25 C overnight also stated); settings: protein: native; label: 5' biotin; stem-loop; 13 nt reverse-complementary primer regions form the stem

Row | Binder | binding result [1] | binding result [2]
1 | B1 | binds | –
2 | B2 | – | binds
